Measurements reported in paper PMC4303762, “Identification of PLXDC1 and PLXDC2 as the transmembrane receptors for the multifunctional factor PEDF” (eLife, 2014).

Target: the molecule itself
Assay: cross-linking; membranes of HEK293 cells transfected with the receptor, in PBS; disulfide bond formation catalysed by 0.5 mM Cu (II) phenanthroline, 5 min; non-reducing and reducing SDS-PAGE, Western blot for the receptor

B1: PLXDC1 in membranes of transfected HEK293 cells (copper phenanthroline crosslinking) (receptor, human, UniProt Q8IUK5 19-500, looked up)
chain: LSPQPGAGHDEGPGSGWAAKGTVRGWNRRARESPGHVSEPDRTQLSQDLGGGTLAMDTLPDNRTRVVEDNHSYYVSRLYGPSEPHSRELWVDVAEANRSQVKIHTILSNTHRQASRVVLSFDFPFYGHPLRQITIATGGFIFMGDVIHRMLTATQYVAPLMANFNPGYSDNSTVVYFDNGTVFVVQWDHVYLQGWEDKGSFTFQAALHHDGRIVFAYKEIPMSVPEISSSQHPVKTGLSDAFMILNPSPDVPESRRRSIFEYHRIELDPSKVTSMSAVEFTPLPTCLQHRSCDACMSSDLTFNCSWCHVLQRCSSGFDRYRQEWMDYGCAQEAEGRMCEDFQDEDHDSASPDTSFSPYDGDLTTTSSSLFIDSLTTEDDTKLNPYAGGDGLQNNLSPKTKGTPVHLGTIVGIVLAVLLVAAIILAGIYINGHPTSNAALFFIERRPHHWPAMKFRSHPDHSTYAEVEPSGHEKEGFMEAEQC
notes: human PLXDC1 with its cytoplasmic tail ending in the conserved cysteine; Detected by a Western blot for the receptor; also called the receptor; source: HEK293, transfected, in membrane preparation
  stoichiometry N: 2
